Test results: PMC12000561

Columns and labels:
Assay in all cases: EMSA
Conditions in all cases: EMSA: DNA mix 40 mM Tris pH 7.6, 2 mM EDTA, 200 mM NaCl (printed '200 M'), 20% glycerol, 0.2 mg/ml BSA, 2 mM DTT, 20 pM duplex, mixed 1:1 with enzyme in 20 mM …
[1] = system: MUTYH R309C (MBP fusion) (Homo sapiens)
[2] = system: MUTYH N238S (MBP fusion) (Homo sapiens)
[3] = system: MUTYH V246F (MBP fusion) (Homo sapiens)
[4] = system: MUTYH R241Q (MBP fusion) (Homo sapiens)
[5] = upper limit estimate, THF (abasic analog) opposite 8-oxoguanine
[6] = THF (abasic analog) opposite 8-oxoguanine
[7] = table unit header missing, 2'-fluoro-2'-deoxyadenosine opposite 8-oxoguanine

Substance	Kd [1, 5] [pM]	Kd [2, 6] [pM]	Kd [3, 5] [pM]	Kd [4, 6] [pM]	Kd [1, 7] [pM]	Kd [2, 7] [pM]	Kd [3, 7] [pM]	Kd [4, 7] [pM]
Duplex 2 THF:OG (product analog), 30 bp	< 10	46	< 10	467	–	–	–	–
Duplex 2 fA:OG (substrate analog), 30 bp	–	–	–	–	246	124	50	629
